Patent US11339383B2, “G proteins” (HEPTARES THERAPEUTICS LIMITED, priority 2016, dated 2022)

Legend:
β1AR-84 [1] = molecular target: T1, β1AR-84 (Meleagris gallopavo, UniProt P07700, C116L/C358A/D322K/DEL244-271/F327A/F338M/M44C/M90V/V103C); assay: Saturation binding assay, ^3H-DHA binding to β1AR-84; set-up: species or system turkey; details: insect cell membranes, 20° C.
T1 construct: His6 (C); made in house; host or cells: Trichoplusia ni (High Five) insect cells, BaculoGold baculovirus
Experimental: FIG. 2. Saturation binding data for β1AR constructs. […] Data represent mean±SEM of three independent experiments. Curves shown are from a representative experiment performed in duplicate.
Insect cells expressing β1AR were resuspended in 1 ml of assay buffer (20 mM HEPES, pH 7.5, 100 mM NaCl), supplemented with Complete EDTA-free protease inhibitors (Roche). Cells were broken by 10 passages through a bent 26 G needle. Cell debris was removed by centrifugation (3000 g for 5 mins at 4° C.). The supernatant was diluted and 2×0.96 ml aliquots taken for each sample. Alprenolol (120 μl) was added to the negative sample (1 mM final concentration) and assay buffer (120 μl) was added to the positive sample. Samples were aliquoted (12×108 μl) into a PCR plate. [^3H]-dihydroalprenolol (12 μl) was added to each well (to give final concentrations in the range: 2.5 nM-2.56 μM). Samples were mixed and incubated at 20° C. for 2 h. Samples (2×50 μl duplicates) were vacuum filtered through 96-well glass fibre filter plates (Merck Millipore), pre-soaked with PEI (0.1%). Each well was washed with assay buffer (3×200 μl). Filters were dried, punched into scintillation vials and 4 ml Ultima Gold scintillant (Perkin Elmer) was added. Radioactivity was quantified by scintillation counting (1 min per sample) using a Tri-Carb counter (Perkin Elmer). Data for negative samples were subtracted from positive samples. […]

β1AR-84 [2] = molecular target: T1, β1AR-84; assay type: binding, turkey; details: membranes
[3] = Thermostability of GDP-bound mini G proteins by differential scanning fluorimetry (DSF); assay type: physicochemical; details: mini-G protein alone, GDP-bound
Experimental: SYPRO-orange (15 μl) was added from a 20× stock solution to give a final concentration of 2×. Samples were mixed and 2×50 μl aliquots (duplicates) were transferred to 0.2 ml PCR tubes (Qiagen). Thermostability measurements were performed using a Rotor-Gene Q (Qiagen). Samples were equilibrated for 90 s at 25° C. before ramping from 25 to 99° C. at 4 s/° C. The melting temperature (Tm), corresponding to the inflection point of the curve, was derived from analysis using the Rotor-Gene Q software. Tm values were calculated as the mean±SEM from three independent experiments.
(§1) For constructs see FIGS. 29 and 35-37. Expression, purification and stability measurements by differential scanning fluorimetry (DSF) of the mini-G proteins as well as the non-lipidated Gβ1γ2 dimer, were performed following the protocols described in Example 1. The stability of mini-G proteins was also determined in detergent using native DSF (NanoTemper Prometheus). Mini-G proteins (2 mg/ml) in 50 mM HEPES pH 7.5 (KOH), 20 mM MgCl2, 50 mM NaCl, 1 μM GDP were mixed with either no detergent (control), 0.1% LMNG or 0.1% DDM. Samples were incubated on ice (minimum 30 min) prior to heating on the Prometheus (20% excitation, 15° C.-85° C., rate of 2.0° C./min) and the onset of scattering determined.

[4] = Stability of mini-G proteins in detergent by native DSF; assay type: physicochemical; details: 2 mg/ml, onset of scattering
Experimental: as §1

A2AR = A2AR (Homo sapiens, UniProt P29274, N154A); assay: Thermostability assay of ^3H-NECA-bound A2AR
A2AR, sequence (P29274 1-317 N154A): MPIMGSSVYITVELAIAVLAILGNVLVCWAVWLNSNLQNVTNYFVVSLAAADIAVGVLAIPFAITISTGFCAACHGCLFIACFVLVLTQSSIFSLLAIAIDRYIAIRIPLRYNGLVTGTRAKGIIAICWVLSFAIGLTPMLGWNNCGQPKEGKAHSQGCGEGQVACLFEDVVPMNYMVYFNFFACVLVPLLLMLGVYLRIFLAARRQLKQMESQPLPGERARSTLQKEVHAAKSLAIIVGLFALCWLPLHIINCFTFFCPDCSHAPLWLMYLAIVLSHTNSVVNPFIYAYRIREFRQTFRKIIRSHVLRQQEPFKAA
Experimental: The samples were incubated at room temperature for 1 h, then chilled on ice for 30 min. DDM, DM or OG were added to a final concentration of 0.1%, 0.13% or 0.8%, respectively, and samples were incubated on ice for 1 h. Cell debris was removed by centrifugation for 5 min at 20,000×g and the supernatant was aliquoted into PCR strips. Samples were heated to the desired temperature for exactly 30 min, then quenched on ice for 30 min. Samples (50 μl) were loaded onto gel filtration resin packed into a 96-well filter plate (Millipore), which was centrifuged to separate receptor-bound from free radioligand. […] Data were analyzed by nonlinear regression using GraphPad Prism software. Apparent Tm values were derived from sigmoidal dose-response analysis. Results represent the mean±SEM of two independent experiments, performed in duplicate.
Samples were heated to the desired temperature for exactly 30 min, then quenched on ice for 30 min. Samples (50 μl) were loaded onto gel-filtration resin (Toyopearl HW-40F) packed into a 96-well filter plate (Millipore), which was centrifuged to separate receptor-bound from free radioligand [28]. […] Data were analysed by nonlinear regression using GraphPad Prism software. Apparent Tm values were derived from sigmoidal dose-response analysis performed by non-liner regression. Results represent the mean±SEM of two independent experiments, performed in duplicate.

NTSR1 = molecular target: T2, NTSR1 (Rattus norvegicus, UniProt P20789); assay: Thermostability assay of ^3H-NTS-bound NTSR1; assay type: biochemical; details: DDM-solubilized
T2 construct: the wild-type rat NTSR1 (residues 43-396) and a C-terminal His10 tag; hemagglutinin signal peptide (N); Flag (N); His10 (C); made in house; host or cells: Trichoplusia ni insect cells, baculovirus (modified pFastBac1)
T2 sequence (P20789 43-396): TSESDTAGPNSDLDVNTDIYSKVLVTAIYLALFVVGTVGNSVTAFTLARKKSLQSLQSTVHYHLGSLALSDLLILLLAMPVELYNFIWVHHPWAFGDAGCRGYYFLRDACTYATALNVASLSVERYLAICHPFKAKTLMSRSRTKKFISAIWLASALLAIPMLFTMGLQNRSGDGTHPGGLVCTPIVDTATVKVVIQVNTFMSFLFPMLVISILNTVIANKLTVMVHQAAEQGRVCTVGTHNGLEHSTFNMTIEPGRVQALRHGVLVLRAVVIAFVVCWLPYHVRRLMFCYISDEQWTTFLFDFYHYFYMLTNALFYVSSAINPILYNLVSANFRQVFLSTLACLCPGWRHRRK
Experimental: The samples were placed on a rotating mixer at 4° C. for 1 hour. Cell debris and non-solubilized material were removed by ultracentrifugation (152,800×g, 4° C., 30 min), and the supernatant containing detergent-solubilized NTSR1 was used to test for thermal stability in the presence of NTS and mini-G proteins. For thermal denaturation curves, the supernatants were diluted 6.67-fold into assay buffer (50 mM TrisHCl pH 7.4, 100 mM NaCl, 1 mM MgCl2) containing 22.5 μM mini-G protein and 10 nM ^3H-NTS and incubated for 1 hour on ice. After addition of apyrase (0.25 units/ml, NEB), the sample was placed on ice for an additional 30 min. Samples (120 μl aliquots) were exposed to different temperatures between 0° C. and 60° C. for 30 min and placed on ice. […] Control reactions on ice were recorded at the start and at the end of each denaturation experiment. The percentage of activity remaining after heat exposure was determined with respect to the unheated control. Data were analyzed by nonlinear regression using a Boltzmann sigmoidal equation in the Prism software (GraphPad).

T1 sequence (P07700 other isoform, or with tags, fused parts or gaps M44C/M90V/V103C/C116L/DEL244-271/D322K/F327A/F338M/C358A): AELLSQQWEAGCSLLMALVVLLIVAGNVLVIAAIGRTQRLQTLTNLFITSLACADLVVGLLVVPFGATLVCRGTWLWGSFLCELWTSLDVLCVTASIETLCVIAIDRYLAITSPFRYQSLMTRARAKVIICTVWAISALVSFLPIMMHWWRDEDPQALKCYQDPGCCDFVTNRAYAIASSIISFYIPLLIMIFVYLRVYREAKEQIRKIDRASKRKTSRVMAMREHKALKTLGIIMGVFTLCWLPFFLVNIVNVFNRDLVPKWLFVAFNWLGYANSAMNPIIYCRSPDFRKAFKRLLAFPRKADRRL

## CCCc1ccccc1OCC(O)CNC(C)C (stereo not shown) [^3H-DHA, ^3H-dihydroalprenolol]
β1AR-84 [1]
  Kd: 20 ± 3 nM

## Gs: non-lipidated Gs (Gαsβ1γ2) heterotrimer [reference compound]
β1AR-84 [2]; relative to uncoupled […]
  shift of isoprenaline Ki of β1AR-84 in response to binding partner, 20° C.: 9.6 fold

B1: Mini Gs77 (protein)
chain: MGHHHHHHANKKIEKQLQKDKQVYRATHRLLLLGAGESGKSTIVKQMRILHVNGGGDQDALRSRVLTSGIFETKFQVDKVNFHMFDVGGQRDERRKWIQCFNDVTAIIFVVASSSYNMVIREDNQTNRLQEALNLFKSIWNNRWLRTISVILFLNKQDLLAEKVLAGKSKIEDYFPEFARYTTPEDATPEPGEDPRVTRAKYFIRDEFLRISTASGDGRHYCYPHFTCAVDTENIRRVFNDCRDIIQRMHLRQYELL
modifications: MINI GS77
β1AR-84 [2]; relative to uncoupled […]
  shift of isoprenaline Ki of β1AR-84 in response to binding partner, 4° C.: 21 fold

B2: Mini Gs393 (protein)
chain: MGHHHHHHENLYFQGIEKQLQKDKQVYRATHRLLLLGADNSGKSTIVKQMRILHGGSGGSGGTSGIFETKFQVDKVNFHMFDVGGQRDERRKWIQCFNDVTAIIFVVDSSDYNRLQEALNDFKSIWNNRWLRTISVILFLNKQDLLAEKVLAGKSKIEDYFPEFARYTTPEDATPEPGEDPRVTRAKYFIRDEFLRISTASGDGRHYCYPHFTCAVDTENARRIFNDCRDIIQRMHLRQYELL
modifications: N-terminal His tag, TEV site; MINI GS393
[3]
  Stability measured by DSF: 65.3 ± 0.0 °C
β1AR-84 [2]; 0.25 mM GTPγS
  GTP-mediated dissociation of β1AR-84 complexes: completely resistant
[4]
  Stability in detergent measured by native DSF, 0.1% DDM: 39.1 ± 0.0 °C
  Stability in detergent measured by native DSF, 0.1% LMNG: 44.9 ± 0.2 °C
  Stability in detergent measured by native DSF, No detergent: 47.7 ± 0.2 °C

B3: Mini-G128: mini-G protein of G12, construct 8; SEQ ID NO:114 (protein)
chain: MGHHHHHHENLYFQGIDALLARERRAVRRLVKILLLGADNSGKSTFLKQMRIIHGGSGGSGGTKGIVEHDFVIKKIPFKMVDVGGQRSQRQKWFQCFDGITSILFMVDSSDYNRLVESMNDFETIVNNKLFFNVSIILFLNKMDLLVEKVKTVSIKKHFPDFRGDPHRLEDVQRYLVQCFDRKRRNRSKPLFHHFTTAIDTENARFIFHAVKDTILQENLKDIMLQ
modifications: Mini-G128
[3]
  Stability measured by DSF: 73 °C
[3]; listed as Gl2 8
  Stability measured by DSF: 72.6 ± 0.3 °C
[4]
  Stability in detergent measured by native DSF, 0.1% DDM: 41.2 ± 0.2 °C
  Stability in detergent measured by native DSF, 0.1% LMNG: 46.0 ± 0.1 °C
  Stability in detergent measured by native DSF, No detergent: 50.3 ± 0.1 °C

B4: Mini-Gs/q57: mini-Gs with five C-terminal residues changed to Gαq (Q390E, E392N, L394V) (protein)
chain: MGHHHHHHENLYFQGIEKQLQKDKQVYRATHRLLLLGADNSGKSTIVKQMRILHGGSGGSGGTSGIFETKFQVDKVNFHMFDVGGQRDERRKWIQCFNDVTAIIFVVDSSDYNRLQEALNDFKSIWNNRWLRTISVILFLNKQDLLAEKVLAGKSKIEDYFPEFARYTTPEDATPEPGEDPRVTRAKYFIRDEFLRISTASGDGRHYCYPHFTCAVDTENARRIFNDCRDIIQRMHLREYNLV
modifications: Mini-Gs/q57
A2AR
  coupling of mini-Gs/q chimera to A2AR (thermostability assay and SEC): still observed

B5: Mini-Gs/q58: mini-Gs with final 19 residues of α5 helix changed to those in Gαq (13 mutations) (protein)
chain: MGHHHHHHENLYFQGIEKQLQKDKQVYRATHRLLLLGADNSGKSTIVKQMRILHGGSGGSGGTSGIFETKFQVDKVNFHMFDVGGQRDERRKWIQCFNDVTAIIFVVDSSDYNRLQEALNDFKSIWNNRWLRTISVILFLNKQDLLAEKVLAGKSKIEDYFPEFARYTTPEDATPEPGEDPRVTRAKYFIRDEFLRISTASGDGRHYCYPHFTCAVDTENARRIFAAVKDTILQLNLKEYNLV
modifications: Mini-Gs/q58
NTSR1
  shift in the thermostability of NTSR1: no significant shift
A2AR
  coupling of mini-Gs/q chimera to A2AR (thermostability assay and SEC): did not couple

B6: Mini-Gs/q70: mini-Gs with R380K Q384L R385Q H387N Q390E E392N L394V (protein)
chain: GIEKQLQKDKQVYRATHRLLLLGADNSGKSTIVKQMRILHGGSGGSGGTSGIFETKFQVDKVNFHMFDVGGQRDERRKWIQCFNDVTAIIFVVDSSDYNRLQEALNDFKSIWNNRWLRTISVILFLNKQDLLAEKVLAGKSKIEDYFPEFARYTTPEDATPEPGEDPRVTRAKYFIRDEFLRISTASGDGRHYCYPHFTCAVDTENARRIFNDCKDIILQMNLREYNLV
[3]
  Stability measured by DSF: 67.2 ± 0.4 °C
[4]
  Stability in detergent measured by native DSF, 0.1% DDM: 36.2 ± 0.1 °C
  Stability in detergent measured by native DSF, 0.1% LMNG: 44.2 ± 0.2 °C
  Stability in detergent measured by native DSF, No detergent: 47.2 ± 0.3 °C
A2AR
  coupling of mini-Gs/q chimera to A2AR (thermostability assay and SEC): no binding

B7: Mini-Gs/i143: mini-Gs with 9 α5 helix mutations changing coupling specificity to Gi1; SEQ ID NO:111 (protein)
chain: MGHHHHHHENLYFQGIEKQLQKDKQVYRATHRLLLLGADNSGKSTIVKQMRILHGGSGGSGGTSGIFETKFQVDKVNFHMFDVGGQRDERRKWIQCFNDVTAIIFVVDSSDYNRLQEALNDFKSIWNNRWLRTISVILFLNKQDLLAEKVLAGKSKIEDYFPEFARYTTPEDATPEPGEDPRVTRAKYFIRDEFLRISTASGDGRHYCYPHFTCAVDTENARRIFNDVTDIIIKMNLRDCGLF
modifications: Mini-Gs/i143
[3]
  Stability measured by DSF: 69.0 ± 0.1 °C
[4]
  Stability in detergent measured by native DSF, 0.1% DDM: 35.9 ± 0.1 °C
  Stability in detergent measured by native DSF, 0.1% LMNG: 41.1 ± 0.1 °C
  Stability in detergent measured by native DSF, No detergent: 44.8 ± 0.0 °C
